The source of these data is paper PMC2836542 (International Journal of Biological Sciences, 2010).

For the test, the target named is E2F-1/Y411A (UniProt Q01094 1-437, Y411A). Put plainly: co-IP.
Sequence of E2F-1/Y411A (Q01094 whole entry Y411A): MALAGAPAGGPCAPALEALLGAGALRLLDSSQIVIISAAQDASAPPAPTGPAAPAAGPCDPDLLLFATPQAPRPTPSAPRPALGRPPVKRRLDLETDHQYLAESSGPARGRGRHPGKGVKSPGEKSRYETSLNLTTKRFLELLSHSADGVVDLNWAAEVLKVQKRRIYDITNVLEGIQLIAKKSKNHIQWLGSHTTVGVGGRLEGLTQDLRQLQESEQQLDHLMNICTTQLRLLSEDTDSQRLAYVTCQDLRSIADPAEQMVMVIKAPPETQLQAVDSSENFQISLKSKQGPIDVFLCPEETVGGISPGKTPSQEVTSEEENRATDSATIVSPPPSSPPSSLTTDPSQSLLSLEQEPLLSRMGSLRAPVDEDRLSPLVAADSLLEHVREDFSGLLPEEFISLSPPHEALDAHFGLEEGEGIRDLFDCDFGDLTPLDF

B1: pRB (natural protein, mouse (endogenous in ψ-CRE), UniProt P13405 1-921, looked up)
chain: MPPKAPRRAAAAEPPPPPPPPPREDDPAQDSGPEELPLARLEFEEIEEPEFIALCQKLKVPDHVRERAWLTWEKVSSVDGILEGYIQKKKELWGICIFIAAVDLDEMPFTFTELQKSIETSVYKFFDLLKEIDTSTKVDNAMSRLLKKYNVLCALYSKLERTCELIYLTQPSSALSTEINSMLVLKISWITFLLAKGEVLQMEDDLVISFQLMLCVVDYFIKFSPPALLREPYKTAAIPINGSPRTPRRGQNRSARIAKQLENDTRIIEVLCKEHECNIDEVKNVYFKNFIPFINSLGIVSSNGLPEVESLSKRYEEVYLKNKDLDARLFLDHDKTLQTDPIDSFETERTPRKNNPDEEANVVTPHTPVRTVMNTIQQLMVILNSASDQPSENLISYFNNCTVNPKENILKRVKDVGHIFKEKFANAVGQGCVDIGVQRYKLGVRLYYRVMESMLKSEEERLSIQNFSKLLNDNIFHMSLLACALEVVMATYSRSTLQHLDSGTDLSFPWILNVLNLKAFDFYKVIESFIKVEANLTREMIKHLERCEHRIMESLAWLSDSPLFDLIKQSKDGEGPDNLEPACPLSLPLQGNHTAADMYLSPLRSPKKRTSTTRVNSAANTETQAASAFHTQKPLKSTSLALFYKKVYRLAYLRLNTLCARLLSDHPELEHIIWTLFQHTLQNEYELMRDRHLDQIMMCSMYGICKVKNIDLKFKIIVTAYKDLPHAAQETFKRVLIREEEFDSIIVFYNSVFMQRLKTNILQYASTRPPTLSPIPHIPRSPYKFSSSPLRIPGGNIYISPLKSPYKISEGLPTPTKMTPRSRILVSIGESFGTSEKFQKINQMVCNSDRVLKRSAEGGNPPKPLKKLRFDIEGADEADGSKHLPAESKFQQKLAEMTSTRTRMQKQRMNESKDVSNKEEK
On to B1, for which the “fold less binding than E2F-1/wt” value amounted to 5 fold less.
